Test results as given in patent publication US20140370021A1 (Xencor, published 2014).

B1: V264I (antibody)
heavy: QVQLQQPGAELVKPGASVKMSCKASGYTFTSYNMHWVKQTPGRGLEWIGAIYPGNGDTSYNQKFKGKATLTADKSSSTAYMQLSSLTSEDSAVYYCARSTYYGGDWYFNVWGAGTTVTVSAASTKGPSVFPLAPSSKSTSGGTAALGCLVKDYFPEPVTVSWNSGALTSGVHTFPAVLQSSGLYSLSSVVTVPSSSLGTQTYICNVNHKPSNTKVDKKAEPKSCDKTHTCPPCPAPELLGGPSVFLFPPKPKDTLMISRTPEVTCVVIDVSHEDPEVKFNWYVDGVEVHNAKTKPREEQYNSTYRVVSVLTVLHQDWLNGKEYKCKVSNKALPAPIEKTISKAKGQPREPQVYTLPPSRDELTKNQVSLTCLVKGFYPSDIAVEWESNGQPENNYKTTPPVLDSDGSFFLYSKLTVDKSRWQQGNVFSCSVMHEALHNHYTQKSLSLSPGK
light: QIVLSQSPAILSASPGEKVTMTCRASSSVSYIHWFQQKPGSSPKPWIYATSNLASGVPVRFSGSGSGTSYSLTISRVEAEDAATYYCQQWTSNPPTFGGGTKLEIKRTVAAPSVFIFPPSDEQLKSGTASVVCLLNNFYPREAKVQWKVDNALQSGNSQESVTEQDSKDSTYSLSSTLTLSKADYEKHKVYACEVTHQGLSSPVTKSFNRGEC
modifications: N297 glycan, not carried by the letters.
notes: also called rituximab V264I; copies: 2 + 2
B2: rituximab V264I/I332E (antibody, human IgG1, kappa)
heavy: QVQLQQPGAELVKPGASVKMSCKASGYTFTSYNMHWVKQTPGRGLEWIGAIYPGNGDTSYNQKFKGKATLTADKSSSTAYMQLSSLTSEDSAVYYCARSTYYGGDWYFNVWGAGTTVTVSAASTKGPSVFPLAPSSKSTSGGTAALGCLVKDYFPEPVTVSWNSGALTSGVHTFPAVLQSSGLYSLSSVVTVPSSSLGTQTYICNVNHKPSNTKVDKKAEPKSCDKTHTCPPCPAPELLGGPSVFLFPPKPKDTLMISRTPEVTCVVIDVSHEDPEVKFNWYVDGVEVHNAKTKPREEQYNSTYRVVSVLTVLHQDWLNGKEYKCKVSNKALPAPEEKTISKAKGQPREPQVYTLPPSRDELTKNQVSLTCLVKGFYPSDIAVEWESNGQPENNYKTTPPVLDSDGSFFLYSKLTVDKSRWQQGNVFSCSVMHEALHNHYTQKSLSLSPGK
light: B1 light

Target: T1, extracellular region of human V158 FcγRIIIa fused with glutathione S-transferase (GST) (human, UniProt P08637 17-208)
T1 construct: extracellular domain; also called human Val158 FcγRIIIa; not shown: glutathione S-transferase (GST) tag
T1 sequence (P08637 17-208 F176V): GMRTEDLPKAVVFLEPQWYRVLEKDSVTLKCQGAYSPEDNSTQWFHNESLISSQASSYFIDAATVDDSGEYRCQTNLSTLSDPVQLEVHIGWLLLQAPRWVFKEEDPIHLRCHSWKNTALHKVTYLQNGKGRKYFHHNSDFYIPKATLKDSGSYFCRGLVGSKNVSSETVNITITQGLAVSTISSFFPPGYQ
Assay: AlphaScreen competition as in Example 2 (biotinylated WT antibody on donor beads, GST-tagged human V158 FcγRIIIa on acceptor beads); Fc variants in the context of rituximab

| Binder | IC50 (read off the curve) |
| --- | --- |
| B1 | ~5 nM |
| B2 | ~0.4 nM |
